What is called Kd is a measure of binding affinity in units of concentration. A high value points to weaker binding. Broadly, the stoichiometry N is the number of molecules, sites or subunits per partner or assembly. Usually koff stands for the rate constant with which the complex falls apart. High values mean fast dissociation, low ones slow dissociation. One may read the kon as the second-order rate constant of association. The low end stands for slower complex formation, the high end for faster complex formation.

Bounds are passed on as bounds.

The target of test [1] is HLA-DQ2 (A1*0501/B1*0201) with the CLIP1 peptide covalently linked to the beta chain, soluble, Fos-Jun leucine zipper. Put plainly: BLI.
The target is the same in test [2]. Kind of test: BLI; Octet RED96; site-specifically biotinylated HLA-DQ2 (CLIP1) immobilised on streptavidin (SA) tips; analyte gp42 or preformed gHgL/gp42 complex; equilibrium (steady state) analysis of the same data. A general note: Biolayer interferometry detects binding as a change in optical thickness at a sensor tip.
Test [3] concerns the target T1, EBV gHgL (soluble gH residues 18-679 / gL residues 24-137 heterodimer) (Epstein-Barr virus, UniProt P03231;P03212). Kind of test: cell-based or functional assay.
The target in test [4] is T1, EBV gHgL (soluble gH residues 18-679 / …). Kind of test: BLI. The following applies: both partners purified.
Test [5] has the same target. Kind of test: BLI. The following applies: both partners purified. The source holds these as a separate data set.
The target is the same in test [6]. Kind of test: BLI; Octet RED96; biotinylated gHgL immobilised on streptavidin (SA) tips, soluble gp42 as analyte; equilibrium analysis of the same data. To be noted: both partners purified.
The target is the same in test [7]. Put plainly: SEC; Superdex 200 gel filtration of purified proteins and their mixtures; 20 mM Tris, 150 mM NaCl, pH 7.4; peak components verified by SDS-PAGE (data not shown). The following applies: both partners purified. (In general: SEC sorts molecules by how far they enter the pores of the column.)

Consider “EBV gp42 C114S/I159C double mutant (referred to as I159C), soluble (residues 33-223) (from UniProt P03205 33-223) (natural protein)”, for which, in test [1], the KD1 (2:1 heterogeneous ligand fit, primary component) turned out to be 59 nM and the KD2 (2:1 heterogeneous ligand fit, secondary component) was 1.25 nM. The molecule further displayed a Kd in test [2] of 29 nM.
Take “EBV gp42 C114S single mutant, soluble (residues 33-223) (from UniProt P03205 33-223) (natural protein)”: in test [1], the KD1 (2:1 heterogeneous ligand fit, primary component) is 88.8 nM and the KD2 (2:1 heterogeneous ligand fit, secondary component) came out at 3.45 nM. The same molecule returned a Kd in test [2] of 97 nM.

B1: EBV gp42 I159C (C114S/I159C), reduced with TCEP and alkylated with iodoacetamide (IAA) (natural protein)
chain: GGGRVAAAAITWVPKPNVEVWPVDPPPPVNFNKTAEQEYGDKEVKLPHWTPTLHTFQVPQNYTKANCTYCNTREYTFSYKGSCFYFTKKKHTWNGCFQACAELYPCTYFYGPTPDILPVVTRNLNACESLWVGVYRVGEGNWTSLDGGTFKVYQIFGSHCTYVSKFSTVPVSHHECSFLKPCLCVSQRSNS
modifications: introduced cysteine 159 reduced with TCEP and alkylated with iodoacetamide (IAA)
As to B1, in test [3], the “virus-free cell-cell fusion (luciferase) of CHO cells expressing gB and gHgL with Daudi B cells, triggered by 0.1 or 1.0 µg soluble gp42 protein; activity relative to wt gp42” value was < 10 % of wild type.

B2: EBV gp42 wild type, soluble (residues 33-223) (natural protein)
chain: GGGRVAAAAITWVPKPNVEVWPVDPPPPVNFNKTAEQEYGDKEVKLPHWTPTLHTFQVPQNYTKANCTYCNTREYTFSYKGCCFYFTKKKHTWNGCFQACAELYPCTYFYGPTPDILPVVTRNLNAIESLWVGVYRVGEGNWTSLDGGTFKVYQIFGSHCTYVSKFSTVPVSHHECSFLKPCLCVSQRSNS
notes: also called gp42 w.t; wt gp42; source: High Five insect cells (baculovirus), secreted, purified (Talon or Ni-NTA, Superdex 200)
Molecule B2 came in with a t1/2 for dissociation in test [4] of approximately 30 min. Moreover, the Kd was 1.41 nM in test [5] and 4.1 nM in test [6]. Besides, in test [7], the “stoichiometry N” value came to 1 gp42 per gHgL.

B3: EBV gp42 C114S/I159C double mutant (referred to as I159C), soluble (residues 33-223) (natural protein)
chain: GGGRVAAAAITWVPKPNVEVWPVDPPPPVNFNKTAEQEYGDKEVKLPHWTPTLHTFQVPQNYTKANCTYCNTREYTFSYKGSCFYFTKKKHTWNGCFQACAELYPCTYFYGPTPDILPVVTRNLNACESLWVGVYRVGEGNWTSLDGGTFKVYQIFGSHCTYVSKFSTVPVSHHECSFLKPCLCVSQRSNS
notes: source: High Five insect cells (baculovirus), secreted, purified (Talon or Ni-NTA, Superdex 200)
In the case of B3, in test [5], binding was characterised by a dissociation constant (Kd) of 0.77 nM, the koff is 0.000295 s⁻¹ and the kon worked out at 381000 M⁻¹ s⁻¹. The Kd in test [6] was 13 nM.

B4: EBV gp42 C114S single mutant, soluble (residues 33-223) (natural protein)
chain: GGGRVAAAAITWVPKPNVEVWPVDPPPPVNFNKTAEQEYGDKEVKLPHWTPTLHTFQVPQNYTKANCTYCNTREYTFSYKGSCFYFTKKKHTWNGCFQACAELYPCTYFYGPTPDILPVVTRNLNAIESLWVGVYRVGEGNWTSLDGGTFKVYQIFGSHCTYVSKFSTVPVSHHECSFLKPCLCVSQRSNS
notes: as for B3
In test [5], B4 displayed a Kd of 1.29 nM, a koff of 0.000529 s⁻¹ and a kon of 409000 M⁻¹ s⁻¹. For the same molecule, the Kd in test [6] stood at 6.3 nM.

(Values after article PMC4140853 (PLoS Pathogens, 2014).)
